Reference: PMC9970974 (2023)

T1: short version of the toxin domain (Ile323-the C-terminus) of MafB2_(MGI-2B16B6), no tag (N. meningitidis B16B6, UniProt Q9JXD2 323-483)
T1 chain: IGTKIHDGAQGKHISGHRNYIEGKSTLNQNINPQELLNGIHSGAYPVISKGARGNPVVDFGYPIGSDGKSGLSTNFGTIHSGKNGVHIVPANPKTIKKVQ

B1: MafI2_(MGI-2B16B6) with a C-terminal 6xHis-tag (natural protein)
chain: MYKIKCFYDQFSSGELFNYCQFLDNSSNQKINTRGTVYQYIIYVLTGDLYLQKDIDENLEFIHQAENNPNEVYSGGGQGFCWDISAEKVVFYHNEFDEEDGWPDLSCSLHTFKTALIAWNAFLQLPKSIHSVVETVIEE

Legend:
[1] = target: short version of the toxin domain (Ile323-the C-terminus) of MafB2_(MGI-2B16B6), no tag (N. meningitidis B16B6) (UniProt Q9JXD2); experiment: ITC; Nano ITC, 20 °C, 10 mM Tris-HCl pH 8.0, 100 mM NaCl, 2 mM β-ME; 50 injections of 1 μl NmMafI2 (~1.3 mM) into NmMafB2-CT2 (~0.2 mM); independent binding sites model
[2] = target: T1, short version of the toxin domain …; experiment: ITC

| Molecule | Kd [1] [nM] | stoichiometry N [1] | Kd [2] [nM] |
| --- | --- | --- | --- |
| MafI2_(MGI-2B16B6) with a C-terminal 6xHis-tag (from UniProt A0A0G4BSP3 1-139) (natural protein) | 40 | 1 | – |
| B1 | – | – | 35.1 |
